# Experimental data taken from patent publication US20240043522A1.
# Key:
# [1] = molecular target: biotinylated human FcRn protein (human) (UniProt P55899); assay: SPR (Biacore T200), biotinylated hFcRn captured on CAP chip, antibody as analyte
# [2] = molecular target: His-tagged recombinant human FcγRIIIa/CD16a (V158) (human) (UniProt P08637); assay: SPR (Biacore T200), His-tagged FcγR captured by anti-His, antibody as analyte, 1:1 kinetic model
# [3] = molecular target: His-tagged recombinant human FcγRIIb/c/CD32b/c (human) (UniProt P31994); assay: as above
# [4] = molecular target: His-tagged recombinant mouse FcγR4/CD16-2 (mouse); assay: as above
# [5] = molecular target: His-tagged recombinant human FcγRIIa/CD32a (R167) (human) (UniProt P12318); assay: as above
# [6] = molecular target: His-tagged recombinant human FcγRI/CD64 (human) (UniProt P12314); assay: as above
# His-tagged recombinant human FcγRI/CD64 (human), sequence (P12314 16-288 limits assumed): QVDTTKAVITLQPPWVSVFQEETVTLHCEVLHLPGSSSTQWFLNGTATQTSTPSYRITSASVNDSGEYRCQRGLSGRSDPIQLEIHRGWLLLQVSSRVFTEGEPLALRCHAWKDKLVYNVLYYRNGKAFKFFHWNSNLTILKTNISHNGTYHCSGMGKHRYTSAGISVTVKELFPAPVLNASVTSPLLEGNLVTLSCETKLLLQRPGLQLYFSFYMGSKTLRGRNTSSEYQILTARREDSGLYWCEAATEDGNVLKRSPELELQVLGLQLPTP
# His-tagged recombinant human FcγRIIIa/CD16a (V158) (human), sequence (P08637 17-208 F176V limits assumed): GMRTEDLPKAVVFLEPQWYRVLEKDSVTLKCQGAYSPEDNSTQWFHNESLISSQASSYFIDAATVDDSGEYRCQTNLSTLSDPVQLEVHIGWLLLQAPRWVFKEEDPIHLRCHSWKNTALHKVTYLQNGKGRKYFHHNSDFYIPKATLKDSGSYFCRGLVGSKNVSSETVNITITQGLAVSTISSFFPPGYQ
# His-tagged recombinant human FcγRIIa/CD32a (R167) (human), sequence (P12318 36-218 H167R limits assumed): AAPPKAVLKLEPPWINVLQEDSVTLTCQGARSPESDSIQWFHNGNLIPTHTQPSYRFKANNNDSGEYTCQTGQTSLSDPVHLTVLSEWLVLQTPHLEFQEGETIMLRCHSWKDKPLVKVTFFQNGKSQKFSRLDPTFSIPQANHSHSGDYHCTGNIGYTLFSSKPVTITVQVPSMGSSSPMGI
# His-tagged recombinant human FcγRIIb/c/CD32b/c (human), sequence (P31994 46-217 limits assumed): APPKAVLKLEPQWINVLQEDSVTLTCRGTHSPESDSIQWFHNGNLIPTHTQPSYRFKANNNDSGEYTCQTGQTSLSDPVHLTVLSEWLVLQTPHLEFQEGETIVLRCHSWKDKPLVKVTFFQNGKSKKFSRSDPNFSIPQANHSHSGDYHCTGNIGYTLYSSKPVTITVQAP
Substance,Kd [1] [nM],Kd [2] [nM],Kd [3] [nM],Kd [4] [nM],Kd [5] [nM],Kd [6] [nM]
"mab01 (adalimumab, IgG1 wild-type) (antibody)",361,656,> 10000,827,3280,0.8
"mab04 (adalimumab Fab, IgG1 E269R, K322A) (antibody)",357,> 10000,–,> 5000,–,6.7
"mab07 (adalimumab Fab, upside-down IgG1 Fc with 19GS-linker between CH1 and CH2) (antibody)",348,–,–,–,–,–
"mab06 (adalimumab Fab, upside-down IgG1 Fc, no linker between CH1 and CH2) (antibody)",528,–,–,–,–,–

# Second part, the substance after the results:
Kd [1] [nM],Kd [2] [nM],Kd [3] [nM],Kd [4] [nM],Kd [5] [nM],Kd [6] [nM],Substance
263,–,–,–,–,–,"mab02 (adalimumab Fab, IgG1 L234A/L235A N297A, aglycosylated) (antibody)"
342,> 10000,> 10000,> 10000,> 5000,–,"mab03 (adalimumab Fab, IgG2 Fc-backbone) (antibody)"
265,–,–,–,–,> 10000,"mab05 (adalimumab Fab, IgG1 L234A/L235A P329A) (antibody)"
